Data from patent US20240254193A1.

What follows are binders tested against TRAIL receptors (assay: cell-based or functional assay).

Binder	EC50 measured by use of L929 cells	EC50, viability of H460 cells by MTS assay	EC50, viability of RPMI-8226 cells by MTS assay	fold enhanced activity to induce apoptosis in L929 cells compared with wild type TRAIL
super-TRAIL AX-1621, P50591 114-281 (ligand) VRERGPQRVAAHITGTRGRSNTLSSPNSKNEKALGRKINSWESSRSGHSFLSNLHLRNGELVIHEKGFYYIYSQTYFRFQEEIKENTKNDKQMVQYIYKYTSYPDPILLMKSARNSCWSKDAEYGLYSIYQGGIFELKENDRIFVSVTNEHLIDMDHEASFFGAFLVGGGGSGGVAAHITGTRGRSNTLSSPNSKNEKALGRKINSWESSRSGHSFLSNLHLRNGELVIHEKGFYYIYSQTYFRFQEEIKENTKNDKQMVQYIYKYTSYPDPILLMKSARNSCWSKDAEYGLYSIYQGGIFELKENDRIFVSVTNEHLIDMDHEASFFGAFLVG	0.95 ng/mL			
super-TRAIL AX-1631, P50591 114-281 (ligand) VRERGPQRVAAHITGTRGRSNTLSSPNSKNEKALGRKINSWESSRSGHSFLSNLHLRNGELVIHEKGFYYIYSQTYFRFQEEIKENTKNDKQMVQYIYKYTSYPDPILLMKSARNSCWSKDAEYGLYSIYQGGIFELKENDRIFVSVTNEHLIDMDHEASFFGAFLVGGGGGGGVAAHITGTRGRSNTLSSPNSKNEKALGRKINSWESSRSGHSFLSNLHLRNGELVIHEKGFYYIYSQTYFRFQEEIKENTKNDKQMVQYIYKYTSYPDPILLMKSARNSCWSKDAEYGLYSIYQGGIFELKENDRIFVSVTNEHLIDMDHEASFFGAFLVG	1.2 ng/mL			
super-TRAIL AX-1622, P50591 114-281 (ligand) VRERGPQRVAAHITGTRGRSNTLSSPNSKNEKALGRKINSWESSRSGHSFLSNLHLRNGELVIHEKGFYYIYSQTYFRFQEEIKENTKNDKQMVQYIYKYTSYPDPILLMKSARNSCWSKDAEYGLYSIYQGGIFELKENDRIFVSVTNEHLIDMDHEASFFGAFLVGGGGSGGGVAAHITGTRGRSNTLSSPNSKNEKALGRKINSWESSRSGHSFLSNLHLRNGELVIHEKGFYYIYSQTYFRFQEEIKENTKNDKQMVQYIYKYTSYPDPILLMKSARNSCWSKDAEYGLYSIYQGGIFELKENDRIFVSVTNEHLIDMDHEASFFGAFLVG	5.3 ng/mL			
super-TRAIL AX-1618, P50591 114-281 (ligand) VRERGPQRVAAHITGTRGRSNTLSSPNSKNEKALGRKINSWESSRSGHSFLSNLHLRNGELVIHEKGFYYIYSQTYFRFQEEIKENTKNDKQMVQYIYKYTSYPDPILLMKSARNSCWSKDAEYGLYSIYQGGIFELKENDRIFVSVTNEHLIDMDHEASFFGAFLVGGGGSGGGGSGGVAAHITGTRGRSNTLSSPNSKNEKALGRKINSWESSRSGHSFLSNLHLRNGELVIHEKGFYYIYSQTYFRFQEEIKENTKNDKQMVQYIYKYTSYPDPILLMKSARNSCWSKDAEYGLYSIYQGGIFELKENDRIFVSVTNEHLIDMDHEASFFGAFLVG	1.5 ng/mL			
super-TRAIL AX-1606, P50591 120-281 (ligand) QRVAAHITGTRGRSNTLSSPNSKNEKALGRKINSWESSRSGHSFLSNLHLRNGELVIHEKGFYYIYSQTYFRFQEEIKENTKNDKQMVQYIYKYTSYPDPILLMKSARNSCWSKDAEYGLYSIYQGGIFELKENDRIFVSVTNEHLIDMDHEASFFGAFLVGGGGSGGGGSGGQRVAAHITGTRGRSNTLSSPNSKNEKALGRKINSWESSRSGHSFLSNLHLRNGELVIHEKGFYYIYSQTYFRFQEEIKENTKNDKQMVQYIYKYTSYPDPILLMKSARNSCWSKDAEYGLYSIYQGGIFELKENDRIFVSVTNEHLIDMDHEASFFGAFLVG	1.05 ng/mL			
super-TRAIL AX-1632, P50591 114-281 (ligand) VRERGPQRVAAHITGTRGRSNTLSSPNSKNEKALGRKINSWESSRSGHSFLSNLHLRNGELVIHEKGFYYIYSQTYFRFQEEIKENTKNDKQMVQYIYKYTSYPDPILLMKSARNSCWSKDAEYGLYSIYQGGIFELKENDRIFVSVTNEHLIDMDHEASFFGAFLVGGGGGGGGGGVAAHITGTRGRSNTLSSPNSKNEKALGRKINSWESSRSGHSFLSNLHLRNGELVIHEKGFYYIYSQTYFRFQEEIKENTKNDKQMVQYIYKYTSYPDPILLMKSARNSCWSKDAEYGLYSIYQGGIFELKENDRIFVSVTNEHLIDMDHEASFFGAFLVG	1.1 ng/mL			
super-TRAIL AX-1623, P50591 114-281 (ligand) VRERGPQRVAAHITGTRGRSNTLSSPNSKNEKALGRKINSWESSRSGHSFLSNLHLRNGELVIHEKGFYYIYSQTYFRFQEEIKENTKNDKQMVQYIYKYTSYPDPILLMKSARNSCWSKDAEYGLYSIYQGGIFELKENDRIFVSVTNEHLIDMDHEASFFGAFLVGGGGSGGGGVAAHITGTRGRSNTLSSPNSKNEKALGRKINSWESSRSGHSFLSNLHLRNGELVIHEKGFYYIYSQTYFRFQEEIKENTKNDKQMVQYIYKYTSYPDPILLMKSARNSCWSKDAEYGLYSIYQGGIFELKENDRIFVSVTNEHLIDMDHEASFFGAFLVG	0.88 ng/mL			
super-TRAIL AX-1630, P50591 114-281 (ligand) VRERGPQRVAAHITGTRGRSNTLSSPNSKNEKALGRKINSWESSRSGHSFLSNLHLRNGELVIHEKGFYYIYSQTYFRFQEEIKENTKNDKQMVQYIYKYTSYPDPILLMKSARNSCWSKDAEYGLYSIYQGGIFELKENDRIFVSVTNEHLIDMDHEASFFGAFLVGGGGGGGGGVAAHITGTRGRSNTLSSPNSKNEKALGRKINSWESSRSGHSFLSNLHLRNGELVIHEKGFYYIYSQTYFRFQEEIKENTKNDKQMVQYIYKYTSYPDPILLMKSARNSCWSKDAEYGLYSIYQGGIFELKENDRIFVSVTNEHLIDMDHEASFFGAFLVG	0.78 ng/mL			
super-TRAIL AX-1611, P50591 114-281 (ligand) VRERGPQRVAAHITGTRGRSNTLSSPNSKNEKALGRKINSWESSRSGHSFLSNLHLRNGELVIHEKGFYYIYSQTYFRFQEEIKENTKNDKQMVQYIYKYTSYPDPILLMKSARNSCWSKDAEYGLYSIYQGGIFELKENDRIFVSVTNEHLIDMDHEASFFGAFLVGGGGGGVAAHITGTRGRSNTLSSPNSKNEKALGRKINSWESSRSGHSFLSNLHLRNGELVIHEKGFYYIYSQTYFRFQEEIKENTKNDKQMVQYIYKYTSYPDPILLMKSARNSCWSKDAEYGLYSIYQGGIFELKENDRIFVSVTNEHLIDMDHEASFFGAFLVG	0.85 ng/mL	54.7 ng/mL	15.4 ng/mL	30 fold
super-TRAIL AX-1620, P50591 114-281 (ligand) VRERGPQRVAAHITGTRGRSNTLSSPNSKNEKALGRKINSWESSRSGHSFLSNLHLRNGELVIHEKGFYYIYSQTYFRFQEEIKENTKNDKQMVQYIYKYTSYPDPILLMKSARNSCWSKDAEYGLYSIYQGGIFELKENDRIFVSVTNEHLIDMDHEASFFGAFLVGGGGSGGGGSGGGSGGVAAHITGTRGRSNTLSSPNSKNEKALGRKINSWESSRSGHSFLSNLHLRNGELVIHEKGFYYIYSQTYFRFQEEIKENTKNDKQMVQYIYKYTSYPDPILLMKSARNSCWSKDAEYGLYSIYQGGIFELKENDRIFVSVTNEHLIDMDHEASFFGAFLVG	2.1 ng/mL			
